Consider 3 molecules from patent publication US20240209113A1 (BEIGENE SWITZERLAND, published 2024).

One assay has as its target T1, human CD137 ECD-mIgG2a (human).
T1 construct: Human CD137 AA 24-183 fused to mouse IgG2a Fc; also called huCD137
The experiment in a line: competition ELISA on coated human CD137 ECD-mIgG2a: BGA-5623 (IgG4 Fc) detected with anti-human IgG-HRP in the presence of serially diluted human CD137 ligand ECD-mIgG2a.

Assay [1] concerns the target T2, Human CD137 ectodomain containing four CRDs (crystallization construct) (human, UniProt Q07011 24-162).
T2 construct: Expressed with a C-terminal TEV site and Fc tag; the Fc tag was cut off
T2 chain: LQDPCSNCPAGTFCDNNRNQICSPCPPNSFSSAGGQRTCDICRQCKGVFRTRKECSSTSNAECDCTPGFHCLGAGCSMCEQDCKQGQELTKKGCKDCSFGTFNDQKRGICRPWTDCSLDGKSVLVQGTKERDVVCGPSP
The experiment in a line: complex purified by gel filtration and crystallized.
Description: The complex was then further purified by gel filtration in buffer (20 mM Tris pH 8.0, 100 mM NaCl) using a HiLoad 16/600 Superdex™ 75 pg column (GE Healthcare Life Sciences). […] Crystals cryoprotected with stepwise 5% D-(+)-Sucrose to a final 20% concentration were flash frozen in liquid nitrogen. […] Crystal was cryoprotected with 7% glycerol and flash frozen in liquid nitrogen. The X-ray diffraction data was collected at beamline BL45XU at Spring-8 synchrotron radiation facility (Hyogo, Japan).

A further assay has as its target T3, human CD40 ECD-mIgG2a (human).
T3 construct: also called huCD40; TNFRSF5(CD40)
The experiment in a line: ELISA, antigens coated at 10 ug/ml; antibody concentration not given.

The target in another assay is T4, TNFRSF1B(CD120b) (UniProt P20333 23-257).
T4 construct: Bought protein
T4 sequence (looked up): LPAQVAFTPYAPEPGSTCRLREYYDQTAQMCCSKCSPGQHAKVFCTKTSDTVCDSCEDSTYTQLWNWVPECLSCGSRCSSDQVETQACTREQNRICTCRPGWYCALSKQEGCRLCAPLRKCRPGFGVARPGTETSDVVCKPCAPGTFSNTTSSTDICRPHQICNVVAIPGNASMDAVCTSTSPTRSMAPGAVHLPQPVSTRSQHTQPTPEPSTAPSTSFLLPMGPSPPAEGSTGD
The assay is described as above.

For a further assay, the target named is T5, TNFRSF1A(CD120a) (UniProt P19438 30-211, limits assumed).
T5 construct: Bought protein
T5 sequence (looked up): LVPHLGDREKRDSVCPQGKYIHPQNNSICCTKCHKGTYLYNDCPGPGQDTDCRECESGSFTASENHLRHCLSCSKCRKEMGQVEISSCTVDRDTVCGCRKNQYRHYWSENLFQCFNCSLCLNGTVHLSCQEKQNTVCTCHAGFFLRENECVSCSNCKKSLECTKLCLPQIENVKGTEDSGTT
Described as above.

In another assay the target is T6, human OX40 ECD-His (human, UniProt P43489 29-216).
T6 construct: also called human OX40-his; huOX40
T6 sequence: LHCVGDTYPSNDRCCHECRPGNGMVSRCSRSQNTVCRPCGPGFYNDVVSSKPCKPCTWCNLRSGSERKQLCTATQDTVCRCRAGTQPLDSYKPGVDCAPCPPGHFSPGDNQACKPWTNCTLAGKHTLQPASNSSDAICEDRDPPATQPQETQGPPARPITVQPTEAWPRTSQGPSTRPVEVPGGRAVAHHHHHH
The assay is described as above.

T3 sequence (chain, as listed by the source limits assumed): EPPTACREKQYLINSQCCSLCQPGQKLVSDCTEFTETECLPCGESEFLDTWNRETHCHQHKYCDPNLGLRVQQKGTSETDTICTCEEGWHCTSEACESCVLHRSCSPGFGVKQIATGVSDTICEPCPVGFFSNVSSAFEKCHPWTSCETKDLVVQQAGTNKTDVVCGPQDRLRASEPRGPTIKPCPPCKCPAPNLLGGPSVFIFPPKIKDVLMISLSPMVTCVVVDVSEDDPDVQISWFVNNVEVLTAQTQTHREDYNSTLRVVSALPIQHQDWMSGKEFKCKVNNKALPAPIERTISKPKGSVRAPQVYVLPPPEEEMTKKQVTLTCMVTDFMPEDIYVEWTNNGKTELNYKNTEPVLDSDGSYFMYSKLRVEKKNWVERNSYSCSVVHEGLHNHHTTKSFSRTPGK

B1: human CD137 ligand-mIgG2a (Fc fusion)
chain: EPRGPTIKPCPPCKCPAPNLLGGPSVFIFPPKIKDVLMISLSPIVTCVVVDVSEDDPDVQISWFVNNVEVHTAQTQTHREDYNSTLRVVSALPIQHQDWMSGKEFKCKVNNKDLPAPIERTISKPKGSVRAPQVYVLPPPEEEMTKKQVTLTCMVTDFMPEDIYVEWTNNGKTELNYKNTEPVLDSDGSYFMYSKLRVEKKNWVERNSYSCSVVHEGLHNHHTTKSFSRTPGKGGGGSREGPELSPDDPAGLLDLRQGMFAQLVAQNVLLIDGPLSWYSDPGLAGVSLTGGLSYKEDTKELVVAKAGVYYVFFQLELRRVVAGEGSGSVSLALHLQPLRSAAGAAALALTVDLPPASSEARNSAFGFQGRLLHLSAGQRLGVHLHTEARARHAWQLTQGATVLGLFRVTPEIPAGLPSPRSE
notes: also called human CD137 ligand ECD-mIgG2a; huCD137 ligand
Turning to B1, the “IC50 (read off the curve)” value with human CD137 ECD-mIgG2a was about 2 µg/mL.

B2: VH (BGA-5623) (VHH)
VHH: EVQLLESGGGLVQPGGSLRLSCAASGFTVSAEDVGWVRQAPGKGLEWVSAILDKGGSTYYAESVKGRFTISRDNAKNTLYLQMSSLRAEDTAVYYCARIVYHAGGGVTFDTRGQGTQVTVSS
notes: Human VH single domain made in E. coli with an N-terminal HIS-MBP tag removed by TEV protease
In the case of B2, in assay [1], the binding result is “binds”.

B3: Urelumab analog (antibody, human IgG4 S228P, kappa, V domains shown)
VH: QVQLQQWGAGLLKPSETLSLTCAVYGGSFSGYYWSWIRQSPEKGLEWIGEINHGGYVTYNPSLESRVTISVDTSKNQFSLKLSSVTAADTAVYYCARDYGPGNYDWYFDLWGRGTLVTVSS
VL: EIVLTQSPATLSLSPGERATLSCRASQSVSSYLAWYQQKPGQAPRLLIYDASNRATGIPARFSGSGSGTDFTLTISSLEPEDFAVYYCQQRSNWPPALTFGGGTKVEIKR
notes: also called Urelumab analog antibody
On to B3, for which the binding result with human CD40 ECD-mIgG2a, with TNFRSF1B(CD120b), with TNFRSF1A(CD120a) and with human OX40 ECD-His was “no binding” in each case.
